± gives the uncertainty stated by the source.

The nature of the first data set: amyloid nucleation score (Sup35N fusion, yeast selection) (log enrichment); library NNK3; higher = more nucleation; inactive = no reads after selection. The procedure, abridged: (§1)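 The nucleation score equals the log enrichment of output over input reads from DiMSum, centred on the mode score of non-aggregating sequences. It was computed only for sequences with 100 or more input reads. The reads came from Illumina sequencing of plasmid inserts from psi-negative yeast expressing Sup35N fused to peptides of 20 random codons, induced with 100 μM copper sulfate for 24 hours and grown 7 days at 30°C without adenine and uracil.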
On to YSQLCFF, for which the amyloid nucleation score result is “inactive”.

As for YSRFDWVNLVIVGHYRTLFS, the amyloid nucleation score result was “inactive”.

As for YSRLEFKRWHVVIDSWRWMD, the amyloid nucleation score result was “inactive”.

Turning to YSRSTWVRIWFLLVSLLPVG, the amyloid nucleation score result was “inactive”.

In the case of YSSLLWCKIES, the amyloid nucleation score result was “inactive”.

For YSSVTTIVVPSLNAYILNCR, the amyloid nucleation score result is “inactive”.

In the case of YSTMRS, the amyloid nucleation score entry is “inactive”.

Take YSTVYIGSQVRVDDTLSMSA: the amyloid nucleation score entry is “inactive”.

With YSYIEGL, the amyloid nucleation score result is “inactive”.

On to YTGSMAGSTYLTGKLSLDDR, for which the amyloid nucleation score result is “inactive”.

Consider YTMLFLLLSWNVFFISWCCF, for which the amyloid nucleation score result is “inactive”.

On to YTRLRNVDTRAFMDSPDILW, for which the amyloid nucleation score result was “inactive”.

As for YTVLWDLVFWGTPICYVIDN, the amyloid nucleation score result is “inactive”.

With YTYQTLLADLNKGFMYSRRW, the amyloid nucleation score result is “inactive”.

In the case of YVDCYRFAVMQEFPCQYRGD, the amyloid nucleation score result is “inactive”.

As for YVDLAGLMLMADMA, the amyloid nucleation score result is “inactive”.

In the case of YVDTAHHGSFENLECVEGLC, the amyloid nucleation score result was “inactive”.

For the substance YVFDHDIGQ, the amyloid nucleation score entry is “inactive”.

On to YVFLRVEILEKLQQV, for which the amyloid nucleation score was -0.522 ± 0.84.

In the case of YVGFVARVVRDYNGYQRDTC, the amyloid nucleation score result is “inactive”.

In the case of YVGPKMFLVWVCDATDVGKW, the amyloid nucleation score result is “inactive”.

Turning to YVGYIDRWSSCYKVFWV, the amyloid nucleation score entry was “inactive”.

As for YVILGIRGKGWVFYQRAP, the amyloid nucleation score entry was “inactive”.

In the case of YVLCFVVELWIGFSDDWISW, the amyloid nucleation score entry is “inactive”.

YVNRYLLYFSFFTFANMCGS had an amyloid nucleation score of 2.05 ± 0.055.

For YVNVYGSQMVYSKSQGHFPD, the amyloid nucleation score entry is “inactive”.

As to YVQSLNR, the amyloid nucleation score result is “inactive”.

YVRLWVEDWETFSKMGSQIL: the amyloid nucleation score entry is “inactive”.

As for YVSDD, the amyloid nucleation score result is “inactive”.

YVSHVSISVSSMLCYGGQSW returned an amyloid nucleation score of 1.93 ± 0.096.

With YVSPKSIVLIPCYTMRKTRY, the amyloid nucleation score entry was “inactive”.

In turn, YVTLYLDTGSCYLSLGCGAG displayed an amyloid nucleation score of 0.758 ± 0.22.

Regarding YVVELLVDSGYVPLCTTGQG, the amyloid nucleation score entry was “inactive”.

As to YVWIDYSSVYMD, the amyloid nucleation score result is “inactive”.

YVWLGDLMSVRCYYWVTW: the amyloid nucleation score entry was “inactive”.

The substance YVYDCYAAQHVY had an amyloid nucleation score of -0.213 ± 0.77.

Turning to YVYGKNGARGDSIREMGPSE, the amyloid nucleation score result is “inactive”.

With YWFGWKGGRSVRRVSWSADW, the amyloid nucleation score is 0.13 ± 0.66.

In the case of YWMMY, the amyloid nucleation score result was “inactive”.

YWNYQMVCFCVNCV returned an amyloid nucleation score of 2.17 ± 0.075.

YYCEFGLFELKQTYCRLFWG: the amyloid nucleation score result is “inactive”.

Consider YYCSDLSRSMDRSLRSTWPF, for which the amyloid nucleation score entry was “inactive”.

Take YYNAGAGKRRYNRSVRGSLK: the amyloid nucleation score result is “inactive”.

Turning to YYNSGSLNTYPVNLNLDNFH, the amyloid nucleation score result was “inactive”.

On to YYPSEQTIGWPKLTFVDVVL, for which the amyloid nucleation score entry is “inactive”.

On to YYRFLQWSGGNLWTPRWAPC, for which the amyloid nucleation score entry is “inactive”.

Turning to YYSKPPCVLTDVGLIWLRPY, the amyloid nucleation score result is “inactive”.

For the substance YYVLPASG, the amyloid nucleation score entry is “inactive”.

For YYYYDRCMRPVHSGKGVKLW, the amyloid nucleation score entry was “inactive”.

A short description of a further data set: amyloid nucleation score (Sup35N fusion, yeast selection) (log enrichment); library NNK2; higher = more nucleation; inactive = no reads after selection. The procedure, abridged:
as §1
AAFRSTFDCTTVVLRSPSVS showed an amyloid nucleation score of -0.345 ± 0.33.

In the case of AAFVAYLAYFLMFSSCFCIY, the amyloid nucleation score result was “inactive”.

On to AAGRDVARAFGSLVQKLGVG, for which the amyloid nucleation score came to 4.88 ± 0.097.

In turn, AAIMMN registered an amyloid nucleation score of -0.231 ± 0.62.

On to AALELSRNKFSVRIICVLLW, for which the amyloid nucleation score was -0.238 ± 1.1.

AALFDLRWTHHKYFPNVKSG registered an amyloid nucleation score of 0.057 ± 1.1.

With AARVIGWAFVDWFCLSKG, the amyloid nucleation score entry was “inactive”.

In the case of ACCFESSGIQLEVRGGGAWG, the amyloid nucleation score came out at 1.58 ± 0.27.

Consider ACFSSSLCFVGMERSRSHNF, for which the amyloid nucleation score turned out to be 1.91 ± 0.13.

ACLFWIYARRHRLAWFVFIW displayed an amyloid nucleation score of -0.37 ± 0.76.

Regarding ACLITNRV, the amyloid nucleation score was -0.288 ± 0.54.

Consider ACYIR, for which the amyloid nucleation score came out at 1.02 ± 0.17.

On to ADDCLRTCSNKLKTQAGLW, for which the amyloid nucleation score stood at 1.38 ± 0.35.

The substance ADHELVVITDVGFRLGSTGD showed an amyloid nucleation score of -0.226 ± 0.37.

ADMIMRYKG returned an amyloid nucleation score of 0.879 ± 0.57.

In turn, ADQWGTRVWPGWEFVLEVAA came in with an amyloid nucleation score of 1.33 ± 0.31.

Turning to AECNRHLLQAVSLY, the amyloid nucleation score is -0.256 ± 0.29.

As for AEHYECPLCERIETAGCKLV, the amyloid nucleation score stood at 0.509 ± 0.24.

In the case of AFATRCCSTLIDPSFVIGTG, the amyloid nucleation score turned out to be 0.692 ± 0.41.

The substance AFCKGYIARMRSINAGVGAG yielded an amyloid nucleation score of -0.144 ± 0.36.

In turn, AFDLLDD had an amyloid nucleation score of 0.904 ± 0.33.

For the substance AFEFIPSKPRW, the amyloid nucleation score is 0.667 ± 0.66.

Regarding AFLRLRWNSNPVISGTRNRR, the amyloid nucleation score was found to be 0.777 ± 0.48.

For AFMCWSYRS, the amyloid nucleation score stood at 6.393 ± 0.043.

Take AFMSYTSSSRYPVCYLSKFH: the amyloid nucleation score is -0.74 ± 1.1.

Regarding AFNDIYIMKMHIFGKSIVLL, the amyloid nucleation score entry is “inactive”.

On to AFVSYLCCGMYRVANSKSEG, for which the amyloid nucleation score was found to be 9.903 ± 0.058.

With AFYIRLIAREP, the amyloid nucleation score entry is “inactive”.

Consider AGFYHPSNFGCLGSGLLRTM, for which the amyloid nucleation score result was “inactive”.

Consider AGKFYAGRHNSD, for which the amyloid nucleation score result is “inactive”.

As for AGKSTHLFLRAVVLLCGNPR, the amyloid nucleation score was 0.05 ± 0.35.

As to AGLIRCLLRGTCNRNFFSLY, the amyloid nucleation score result was “inactive”.

AGMPCKFIRARSSPYFRALC came in with an amyloid nucleation score of 0.495 ± 0.62.

Consider AGSNDEKNRWVTSL, for which the amyloid nucleation score is -0.22 ± 1.

Substance AGSQVVVMVIGVSTWAVVDG registered an amyloid nucleation score of 3.01 ± 0.14.

Turning to AHEYEPNFFRLCYKVRLWNA, the amyloid nucleation score is -0.244 ± 0.22.

AHKKRDMWLRKPGL had an amyloid nucleation score of 1.68 ± 0.53.

In turn, AILKWSLICMMGRDWYSQWF returned an amyloid nucleation score of 6.317 ± 0.037.

As for AILRRVKIQLPRIPPEYCGW, the amyloid nucleation score is 0.884 ± 0.49.

As to AILSEGETGFVSDYRQVSEP, the amyloid nucleation score was -0.004 ± 0.34.

AIMYFVTCMKILMFVGNYVQ gave an amyloid nucleation score of -0.118 ± 0.27.

With AINAKRHTWLFNLHSTFLCF, the amyloid nucleation score stood at 2.8 ± 0.14.

Substance AIRRPDRSQFLAYLVSSCKF came in with an amyloid nucleation score of -0.218 ± 0.45.

For AIVYDH, the amyloid nucleation score was -0.291 ± 0.63.

For AIWYFFIRNYYPSLLQKRSL, the amyloid nucleation score was 1.89 ± 0.12.

In turn, AKNVKKT returned an amyloid nucleation score of -0.575 ± 0.32.

Turning to ALAYAWYLVGLLFSKVWRYS, the amyloid nucleation score amounted to 0.095 ± 0.42.

In the case of ALCIAGTLLYMANLISTLHG, the amyloid nucleation score was 0.439 ± 0.36.

In turn, ALEVLTTLRISLPSHKGSSF gave an amyloid nucleation score of 5.533 ± 0.051.

For the substance ALLFYGKMY, the amyloid nucleation score worked out at 5.966 ± 0.052.

ALMDCACFVYSRD: the amyloid nucleation score was -0.199 ± 1.1.

ALNGFVYALLAGPGQRLIKP registered an amyloid nucleation score of 1.36 ± 0.53.

Turning to ALNLIV, the amyloid nucleation score is -0.572 ± 0.32.

The substance ALNPVCL registered an amyloid nucleation score of 0.623 ± 0.62.

Substance ALQDMTI registered an amyloid nucleation score of -0.176 ± 0.36.

The substance ALVAWVVSYYLALLCSPRQS gave an amyloid nucleation score of -0.1 ± 0.74.

For the substance ALWTSC, the amyloid nucleation score came out at 2.35 ± 0.078.

In turn, AMDMI had an amyloid nucleation score of 0.833 ± 0.8.

In turn, AMFVLVGFEFY yielded an amyloid nucleation score of 1.47 ± 0.11.

For AMGNKREKVL, the amyloid nucleation score amounted to 0.601 ± 0.44.

As to AMGVC, the amyloid nucleation score is -0.061 ± 0.41.

In the case of AMSPGTVKRFGLLVALFQY, the amyloid nucleation score was determined as 0.867 ± 0.74.

Consider AMSSA, for which the amyloid nucleation score was 0.906 ± 0.52.

On to AMYICLRVIGSSGRSVMASK, for which the amyloid nucleation score was determined as 0.782 ± 0.16.

With ANKTSPICSCVFNEL, the amyloid nucleation score came out at 6.3 ± 0.088.

Turning to ANKTVFVLEMVGVRGFYLMP, the amyloid nucleation score turned out to be 2.66 ± 0.098.

For ANLSRCVELMSRPQSVD, the amyloid nucleation score was determined as 1 ± 0.15.

ANVGYFVGW displayed an amyloid nucleation score of 0.873 ± 0.31.

On to APRGLTFVQQSVSSIHLTAK, for which the amyloid nucleation score is 0.345 ± 0.39.

APRRVSERFGSIVWVRRNS came in with an amyloid nucleation score of -0.547 ± 0.55.

On to APSHPSTVFLYICLLFENKP, for which the amyloid nucleation score is -0.128 ± 0.55.

For APVLSDN, the amyloid nucleation score was -0.07 ± 0.49.

Substance AQLRKMSSVNYV returned an amyloid nucleation score of -0.825 ± 1.1.

In turn, AQTSWNILFAKS showed an amyloid nucleation score of -0.501 ± 0.64.

Substance ARCCFVPEEYSVV registered an amyloid nucleation score of 1.22 ± 0.25.

As for ARCMGFLSGGIHYRYLTAQM, the amyloid nucleation score entry was “inactive”.

Regarding ARFFLHFG, the amyloid nucleation score was found to be 6.2 ± 0.074.

As for ARKISV, the amyloid nucleation score result was “inactive”.

As for ARMRKFTCRDWFRDPMGQPA, the amyloid nucleation score is 0.854 ± 0.25.

As for ARNSVKHSFFQVRRLHGSWD, the amyloid nucleation score stood at 0.367 ± 0.38.

Consider ARRVQRKSIPTFVSSAMMSD, for which the amyloid nucleation score was -0.25 ± 0.36.

Turning to ARTWGAAIWFMGN, the amyloid nucleation score was determined as 4.09 ± 0.093.

For ARVIFAVSVLEFRVGYSQGA, the amyloid nucleation score was found to be 3.87 ± 0.086.

On to ARVNYLRTCKYASRNSFHRS, for which the amyloid nucleation score is -0.913 ± 0.45.

For the substance ARWWMSSKRR, the amyloid nucleation score stood at 0.026 ± 0.65.

For the substance ASALGRWFTPHVSFIKYGGA, the amyloid nucleation score turned out to be 0.531 ± 0.49.

As to ASCVVRGQYAQMVYCWRTLG, the amyloid nucleation score is -0.072 ± 0.23.

The record behind these values is the supplement of paper PMC12042874.
